Test results reported in publication PMC5158082 (PLoS Pathogens, 2016).

Legend:
SpaR^STREP = biological target: T1, SpaR^STREP (Salmonella enterica serovar Typhimurium, UniProt P40701 1-263); test: native MS; details: both partners purified
T1 construct: also called SpaR^STREP of the SpaPR^STREP complex
T1 sequence: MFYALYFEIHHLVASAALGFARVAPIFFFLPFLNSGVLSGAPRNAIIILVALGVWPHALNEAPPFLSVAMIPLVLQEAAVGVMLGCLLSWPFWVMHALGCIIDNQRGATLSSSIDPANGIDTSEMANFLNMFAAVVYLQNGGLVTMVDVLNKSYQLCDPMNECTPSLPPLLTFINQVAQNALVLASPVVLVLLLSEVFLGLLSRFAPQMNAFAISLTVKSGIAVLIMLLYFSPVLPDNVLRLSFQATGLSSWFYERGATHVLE

native MS = biological target: the molecule itself; test: native MS

B1: SpaP (untagged, co-expressed in E. coli) (natural protein)
chain: MGNDISLIALLAFSTLLPFIIASGTCFVKFSIVFVMVRNALGLQQIPSNMTLNGVALLLSMFVMWPIMHDAYVYFEDEDVTFNDISSLSKHVDEGLDGYRDYLIKYSDRELVQFFENAQLKRQYGEETETVKRDKDEIEKPSIFALLPAYALSEIKSAFKIGFYLYLPFVVVDLVVSSVLLALGMMMMSPVTISTPIKLVLFVALDGWTLLSKGLILQYMDIAT
notes: also called SpaP of the SpaPR complex; SpaP5R1
SpaR^STREP
  stoichiometry N: 5 SpaP per SpaR^STREP
Native MS
  stoichiometry N: 5
